Numbering of substitutions follows the chain as printed.
Columns and labels:
[1] = target: T1, Borealin C-terminal domain (207-280) (human, UniProt Q53HL2 207-280, biotinylated on the Avi-tag (co-expression with BirA)); test: SPR, His-tagged target on NTA chip, 2-fold dilutions of the Fab injected, 1:1 Langmuir fit [panel B, top]
T1 construct: range 207-280; The construct carries His- and Avi-tags; Expressed in E. coli; Immobilised via neutravidin (ELISA) or His-tag/NTA chip (SPR); also called Bor-C
T1 sequence (looked up): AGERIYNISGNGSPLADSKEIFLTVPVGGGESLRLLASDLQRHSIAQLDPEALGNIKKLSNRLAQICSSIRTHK
Protocol: (§1) The targets were immobilized onto a nitrilotriacetic acid (NTA) sensor chip via His-tag. 2-fold serial dilutions of the Fab were injected following ligand immobilization on the sensor chip. For each kinetic assay at least five dilutions of the Fab were tested. The data were fitted using 1:1 Langmuir Model to obtain the on-rate, off-rate and the affinity (KD) of the Fab-target interaction.

[2] = target: T2, Borealin N-terminal domain (20-88) (human, UniProt Q53HL2 20-88, biotinylated on the Avi-tag (co-expression with BirA)); test: Western blot of recombinant CPC domains, Fab as primary reagent, anti-human F(ab')2 IgG-HRP [panel B]
T2 construct: range 20-88; The construct carries His- and Avi-tags; Expressed in E. coli; Immobilised via neutravidin (ELISA) or His-tag/NTA chip (SPR); also called Bor-N
T2 sequence (looked up): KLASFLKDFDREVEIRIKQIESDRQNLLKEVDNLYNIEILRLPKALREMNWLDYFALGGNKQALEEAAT
Protocol: (§2) Recombinant CPC targets Survivin-N(N-term), Borealin-N(N-term), Borealin-C(C-term) and INCENP-N(N-term) domains were run on SDS-PAGE and transferred into PVDF membrane. […] The assay was developed by using a secondary anti-human-F(ab′)2 IgG-HRP reagent
(§3) Membranes were stained with Ponceau S dye to verify correct transfer of the proteins, were briefly washed with ddH2O and blocked with 4% skimmed milk in TBS-T containing 0.05% Tween20 for 30 min. at RT on the shaker. Blocking solution was discarded and membranes were incubated with Borealin Fabs as primary detection reagents at concentration 5-10 µg/ml, in blocking buffer at 4 C O/N on the shaker. Membranes were washed 3 times with TBS-T and incubated with secondary anti-human FAB′2 specific HRP-conjugated IgG (diluted 1:10,000 in blocking buffer) for 45 minutes at RT, shaking. Membranes were washed again 3× with TBS-T, developed with ECL chemiluminescent substrate and visualized with the Biorad imaging instrument (FIG. 10).

INC-N = target: T3, INC-N; test: as above
T3 construct: Specificity lane in the Western blots; also called INCENP-N (N-term); Inc: 1-58
T3 chain: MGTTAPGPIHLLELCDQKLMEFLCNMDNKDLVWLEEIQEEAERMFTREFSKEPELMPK
Protocol: as §2, §3

Sur-N = target: T4, Sur-N; test: as above
T4 construct: Specificity lane in the Western blots; also called Survivin-N (N-term); Sur N: 1-120
T4 sequence (chain, as listed by the source limits assumed): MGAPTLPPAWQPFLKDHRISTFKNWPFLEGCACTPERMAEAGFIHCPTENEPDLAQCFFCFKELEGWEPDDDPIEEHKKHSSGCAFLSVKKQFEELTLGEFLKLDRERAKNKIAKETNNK
Protocol: as §2, §3

[3] = target: T2, Borealin N-terminal domain (20-88); test: single-point Fab ELISA, 50 nM biotinylated target on neutravidin, 200 nM Fab, protein L-HRP [panel A]
Protocol: (§4) To rapidly reconfirm the binding and specificity of the obtained Fabs after reformatting into the expression vectors single-point Fab ELISA was performed (FIG. 2). Briefly, 50 nM Avi-tagged targets were immobilized on the prepared NAV-coated and blocked with 0.5% BSA in PBS 96-well ELISA plates. The target coated plates were washed with appropriate buffer (TBST or PBST) and were incubated with 200 nM Fab for 20 minutes and then washed. The washed plates were incubated with protein L conjugated with HRP (1:5000 diluted in TBST) for 30 minutes. Plates were washed and the reaction was developed using the TMB chromogenic substrate (Thermofisher) and subsequently quenched with 1M HCl. Absorbance was read at 450 nm on Epoch plate reader.

[4] = target: T1, Borealin C-terminal domain (207-280); test: SPR, His-tagged target on NTA chip, 2-fold dilutions of the Fab injected, 1:1 Langmuir fit [panel B, middle]
Protocol: as §1

[5] = target: T2, Borealin N-terminal domain (20-88); test: single-point Fab ELISA, 50 nM biotinylated target on neutravidin, protein L-HRP [panel A]
Protocol: as §4

[6] = target: T1, Borealin C-terminal domain (207-280); test: Western blot of recombinant CPC domains, Fab as primary reagent, anti-human F(ab')2 IgG-HRP [panel A]
Protocol: as §2, §3

[7] = target: T2, Borealin N-terminal domain (20-88); test: SPR, His-tagged target on NTA chip, 2-fold dilutions of the Fab injected, 1:1 Langmuir fit [panel A]
Protocol: as §1

[8] = target: T1, Borealin C-terminal domain (207-280); test: single-point Fab ELISA, 50 nM biotinylated target on neutravidin, protein L-HRP [panel B]
Protocol: as §4

[9] = target: T1, Borealin C-terminal domain (207-280); test: SPR, His-tagged target on NTA chip, 2-fold dilutions of the Fab injected, 1:1 Langmuir fit [panel B, bottom]
Protocol: as §1

B1: BOR-C-56 (Fab, V domains shown)
VH: EVQLVESGGGLVQPGGSLRLSCAASGFNISSSSIHWVRQAPGKGLEWVAYISSYSGSTYYADSVKGRFTISADTSKNTAYLQMNSLRAEDTAVYYCARYYHSPLWYYSYSGMDYWGQGTLVTVSS
VL: DIQMTQSPSSLSASVGDRVTITCRASQSVSSAVAWYQQKPGKAPKLLIYSASSLYSGVPSRFSGSRSGTDFTLTISSLQPEDFATYYCQQDYSWSPITFGQGTKVEIKR
notes: also called BOR-C-56 Fab
With B1 the Kd [1] was 11.6 nM, the binding result [2] was “no binding (tested: 5-10 ug/ml (the text prints 'lg/ml'))” and the binding result (INC-N) was “no binding (tested: 5-10 ug/ml (the text prints 'lg/ml'))”. B1: no binding (tested: 5-10 ug/ml (the text prints 'lg/ml')) (Sur-N).

B2: BOR-N-51 (Fab, V domains shown)
VH: EVQLVESGGGLVQPGGSLRLSCAASGFNVYSYSIHWVRQAPGKGLEWVASIYSSYSYTSYADSVKGRFTISADTSKNTAYLQMNSLRAEDTAVYYCARKYHFKPTYWGAMDYWGQGTLVTVSS
VL: B1 VL with D91S, Y92S, S93L, W94Y, S95Y, I97L
notes: also called BOR-N-51 Fab
B2: binds [3].

B3: BOR-C-61 (Fab, V domains shown)
VH: EVQLVESGGGLVQPGGSLRLSCAASGFNFYSSYIHWVRQAPGKGLEWVASISSSSGSTSYADSVKGRFTISADTSKNTAYLQMNSLRAEDTAVYYCARRSGGGLDYWGQGTLVTVSS
VL: DIQMTQSPSSLSASVGDRVTITCRASQSVSSAVAWYQQKPGKAPKLLIYSASSLYSGVPSRFSGSRSGTDFTLTISSLQPEDFATYYCQQSSSSLITFGQGTKVEIKR
notes: also called BOR-C-61 Fab
B3 was tested, and the Kd [4] was 8.5 nM.

B4: BOR-N-65 (Fab, V domains shown)
VH: EVQLVESGGGLVQPGGSLRLSCAASGFNFSSSSIHWVRQAPGKGLEWVASISSSSGSTSYADSVKGRFTISADTSKNTAYLQMNSLRAEDTAVYYCARESSQTKKYWYWVVQWYTAMDYWGQGTLVTVSS
VL: B3 VL with S91Y, S93Q, S94W
notes: also called BOR-N-65 Fab
B4: no binding (tested: 200 nM) [5].

B5: BOR-N-49 (Fab, V domains shown)
VH: EVQLVESGGGLVQPGGSLRLSCAASGFNVSSYSIHWVRQAPGKGLEWVASIYSSSSSTYYADSVKGRFTISADTSKNTAYLQMNSLRAEDTAVYYCARRYYHYRYPLFWGWYGMDYWGQGTLVTVSS
VL: B3 VL with S92F, S93W, S94W, L95P
notes: also called BOR-N-49 Fab
B5: binds [3].

B6: BOR-N-48 (Fab, V domains shown)
VH: EVQLVESGGGLVQPGGSLRLSCAASGFNFSYSSIHWVRQAPGKGLEWVASIYPYSGSTYYADSVKGRFTISADTSKNTAYLQMNSLRAEDTAVYYCARKQVSGWWWYYGFDYWGQGTLVTVSS
VL: B3 VL with S92Y, S93W, S94W, L95P
notes: also called BOR-N-48 Fab
With B6 the binding result [6] was “no binding (tested: 5-10 ug/ml (the text prints 'lg/ml'))” and the Kd [7] was 0.4 nM.

B7: BOR-C-58 (Fab, V domains shown)
VH: EVQLVESGGGLVQPGGSLRLSCAASGFNVSSYSIHWVRQAPGKGLEWVASISPYYGYTSYADSVKGRFTISADTSKNTAYLQMNSLRAEDTAVYYCARHYYYGFSWFSSGYAMDYWGQGTLVTVSS
VL: B3 VL with S91G, L95P
notes: also called BOR-C-58 Fab
B7: no binding (tested: 200 nM) [8].

B8: BOR-C-64 (Fab, V domains shown)
VH: EVQLVESGGGLVQPGGSLRLSCAASGFNVYYSSIHWVRQAPGKGLEWVASISSYYGSTYYADSVKGRFTISADTSKNTAYLQMNSLRAEDTAVYYCARWKWVAMDYWGQGTLVTVSS
VL: B3 VL with S91D, S92L, S93F, S94M, L95P
notes: also called BOR-C-64 Fab
With B8 the Kd [9] was 0.6 nM.

B9: BOR-N-50 (Fab, V domains shown)
VH: EVQLVESGGGLVQPGGSLRLSCAASGFNVYSYSIHWVRQAPGKGLEWVASIYSYSGYTYYADSVKGRFTISADTSKNTAYLQMNSLRAEDTAVYYCARSTYPHVYLYFGLDYWGQGTLVTVSS
VL: B3 VL with S92Y, S93Y, S94W, L95P, I96V
notes: also called BOR-N-50 Fab
B9: binds [3].

From US20250127814A1 (UNIVERSITY OF CHICAGO, published 2025)
